± gives the uncertainty stated by the source.
Test: self-splicing fitness, log relative to wild type (ln ratio); higher = more splicing; Tetrahymena group I intron in knt gene, E. coli kanamycin selection, DiMSum; sequences stand for … in CUCUCU…GGAGGGAAAAGUUAUCAGGCAUGCACCUGGUAGCUAGUCUUUAAACCAAUAGAUUGCAUCGGUUUAAAAGGCAAGACCGUCAAAUUGCGGGAAAGGGGUCAACAGCCGUUCAGUACCAAGUCUCAGGGGAAACUUUGAGAUGGCCUUGCAAAGGGUAUGGUAAUAAGCUGACGGACAUGGUCCUAACCACGCAGCCAAGUCCUAAGUCAACAGAUCUUCUGUUGAUAUGGAUGCAGUUCACAGACUAAAUGUCGGUCGGGGAAGAUGUAUUCUUCUCAUAAGAUAUAGUCGGACCUCUCCUUAAUGGGAGCUAGCGGAUGAAGUGAUGCAACACUGGAGCCGCUGGGAACUAAUUUGUAUGCGAAAGUAUAUUGAUUAGUUUUGGAGUACUCGUGGUCG
Method in brief: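 The eight P1ex-region nucleotides of an intron in the knt kanamycin-resistance gene on pET-22b(+) were all randomised and the library put into E. coli BL21(DE3). Six replicate transformations were grown overnight at 37°C or 30°C on LB agar with or without 25 μg/mL kanamycin, together with 100 μg/mL carbenicillin, 50 μM IPTG and 0.2% rhamnose. Colonies were pooled and amplicon-sequenced on an Illumina HiSeq 2500. Fitness from DiMSum is the error-weighted combination of wild-type-normalised replicate fold changes, kanamycin over none.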

Row | Sequence | self-splicing fitness (ln) (30 °C) | self-splicing fitness (ln) (37 °C)
1 | UUCAAGCAAUAUUACGAUCU | -1.59 ± 0.092 | -0.996 ± 0.089
2 | GUUCAGCAAUAUUACGCGGC |  | -2.94 ± 0.43
3 | UUCCAGCAAUAUUACGGUAC | -4.17 ± 0.24 | -2.6 ± 0.23
4 | GUCAAGCAAUAUUACGAACC | -3.76 ± 0.42 | 
5 | GUGGAGCAAUAUUACGUCAC | -3.5 ± 0.39 | -1.99 ± 0.26
6 | UCAGAGCAAUAUUACGGGGG | -2.66 ± 0.23 | -3.15 ± 0.35
7 | UCGCAGCAAUAUUACGGCGU | -2.06 ± 0.16 | 0.251 ± 0.11
8 | GUACAGCAAUAUUACGUGUG | -2.12 ± 0.087 | -1.45 ± 0.1
9 | GGCUAGCAAUAUUACGAAGU | -2.13 ± 0.26 | -1.56 ± 0.44
10 | GAUUAGCAAUAUUACGCGGU | -3.5 ± 0.47 | -3.43 ± 0.33
11 | CGUGAGCAAUAUUACGCUAU | -2.39 ± 0.17 | -2.49 ± 0.23
12 | UCGAAGCAAUAUUACGGUCG | -0.668 ± 0.079 | 0.0856 ± 0.11
13 | GGUGAGCAAUAUUACGCUUG | -3.71 ± 0.29 | -3.44 ± 0.33
14 | AAAGAGCAAUAUUACGACGG | -3.27 ± 0.29 | -2.83 ± 0.43
15 | CAUAAGCAAUAUUACGUGAG | -3.12 ± 0.13 | -0.711 ± 0.099
16 | CCACAGCAAUAUUACGGAGG | -3.92 ± 0.22 | -1.16 ± 0.12
17 | UCACAGCAAUAUUACGAAUG | -1.77 ± 0.097 | -1.61 ± 0.14
18 | GGCCAGCAAUAUUACGACCG | -1.21 ± 0.11 | -0.323 ± 0.14
19 | CCAUAGCAAUAUUACGCGAC | -3.56 ± 0.13 | -2.9 ± 0.18
20 | AUGUAGCAAUAUUACGCUCA | -0.372 ± 0.075 | -0.2 ± 0.1
21 | CAUGAGCAAUAUUACGGUAU | -4 ± 0.39 | -3.54 ± 0.33

Row | Sequence | self-splicing fitness (ln) (30 °C) | self-splicing fitness (ln) (37 °C)
22 | AGAAAGCAAUAUUACGUGCA | -0.717 ± 0.079 | -0.292 ± 0.099
23 | AGCCAGCAAUAUUACGCAGU | -4 ± 0.2 | -3.46 ± 0.21
24 | GGACAGCAAUAUUACGGCCU | -2.3 ± 0.13 | -1.13 ± 0.12
25 | CAUAAGCAAUAUUACGACUC | -3.48 ± 0.34 | -0.925 ± 0.14
26 | GAGCAGCAAUAUUACGAACG | -2.53 ± 0.18 | -0.673 ± 0.16
27 | AUAAAGCAAUAUUACGUCCA | -0.469 ± 0.098 | 0.194 ± 0.16
28 | CCCCAGCAAUAUUACGAGUA | -2.91 ± 0.12 | -2.58 ± 0.14
29 | UAUAAGCAAUAUUACGUAAG | -2.45 ± 0.15 | -1.08 ± 0.16
30 | AGACAGCAAUAUUACGAUCA | -0.682 ± 0.074 | 0.267 ± 0.089
31 | UCGCAGCAAUAUUACGGCGA | -3.35 ± 0.13 | -3 ± 0.17
32 | UGUAAGCAAUAUUACGCAGG | -3.22 ± 0.16 | -3.06 ± 0.24
33 | UCAGAGCAAUAUUACGGGCG | -2.45 ± 0.17 | -2 ± 0.25
34 | GCAUAGCAAUAUUACGAAAU | -1.98 ± 0.13 | -1.31 ± 0.12
35 | AAAAAGCAAUAUUACGACUC | 0.0755 ± 0.088 | 0.373 ± 0.11
36 | UCACAGCAAUAUUACGAGAU | -4.39 ± 0.25 | -2.85 ± 0.24
37 | CCGAAGCAAUAUUACGGCUC | -3.57 ± 0.32 | -2.81 ± 0.35
38 | UAGGAGCAAUAUUACGCUUU | -2.54 ± 0.32 | -1.66 ± 0.29
39 | GGUGAGCAAUAUUACGCACA | -1.07 ± 0.15 | -0.679 ± 0.17
40 | CCUUAGCAAUAUUACGUAGA | -4.13 ± 0.34 | -0.769 ± 0.17
41 | GCCGAGCAAUAUUACGAAUG | -3.59 ± 0.3 | -2.75 ± 0.27
42 | AGGGAGCAAUAUUACGUCGU | -4.4 ± 0.46 | -2.46 ± 0.33

Row | Sequence | self-splicing fitness (ln) (30 °C) | self-splicing fitness (ln) (37 °C)
43 | CAUUAGCAAUAUUACGUCAC |  | -1.63 ± 0.44
44 | UUCAAGCAAUAUUACGACUC | -1.98 ± 0.24 | -0.791 ± 0.22
45 | GAAAAGCAAUAUUACGCGCC | -2.06 ± 0.16 | -1.25 ± 0.17
46 | AGUCAGCAAUAUUACGCCAU | -2.86 ± 0.25 | -1.1 ± 0.21
47 | GAUUAGCAAUAUUACGACCC | -0.91 ± 0.24 | 0.12 ± 0.24
48 | GCUGAGCAAUAUUACGUCAG | -3.35 ± 0.24 | -2.15 ± 0.26
49 | ACCUAGCAAUAUUACGCUGA | -1.59 ± 0.082 | -0.127 ± 0.09
50 | CCUCAGCAAUAUUACGCCUG | -2.38 ± 0.081 | -1.72 ± 0.11
51 | UGAUAGCAAUAUUACGGCAA | -1.36 ± 0.15 | -0.418 ± 0.15
52 | UGCCAGCAAUAUUACGCUUU | -2.03 ± 0.079 | -1.76 ± 0.074
53 | GUCCAGCAAUAUUACGGUAU | -0.797 ± 0.052 | 0.0993 ± 0.064
54 | CAGAAGCAAUAUUACGAGGA | -4.09 ± 0.4 | -2.01 ± 0.2
55 | GUAGAGCAAUAUUACGCCAU | -1.22 ± 0.39 | 
56 | UUAGAGCAAUAUUACGCUCA | -1.75 ± 0.18 | -0.916 ± 0.26
57 | CCUGAGCAAUAUUACGUGUC | -4.13 ± 0.21 | -2 ± 0.13
58 | GGGUAGCAAUAUUACGGGAC | -2.79 ± 0.2 | -0.633 ± 0.13
59 | UUAUAGCAAUAUUACGCUGG | -1.35 ± 0.14 | -0.828 ± 0.12
60 | AAUCAGCAAUAUUACGCCCU | 0.314 ± 0.099 | 0.0253 ± 0.12
61 | ACCAAGCAAUAUUACGAAAA | -3.44 ± 0.2 | -2.91 ± 0.23

Reference: the supplement of paper PMC7877785
